B1: EDARADD (parent)
chain: VEKVLRRWVDEEWPKRERGDPSRH
B2: USP39 (parent)
chain: TLSEAYIQIWKRRDNDETNQQGA

Variants of: B1
Assay: protein stability index of a GFP-peptide fusion (GPS, HEK-293T) (PSI 1-6); higher = more stable
Settings: c terminus: a fixed tail appended
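Note: lentivirally expressed fusions sorted by FACS into six bins by GFP to DsRed ratio, PSI derived from sequencing read proportions per bin multiplied by bin number.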

Variant	protein stability index
VEKVLRRWVDEEWPKRERGDPSRQ	3.56
VEKVLRRWVDEEWPKRERGDPSRC	2.13
VEKVLRRWVDEEWPKRERGDPSRL	3.12
VEKVLRRWVDEEWPKRERGDPSRY	2.41
VEKVLRRWVDEEWPKRERGDPSRD	3.06
VEKVLRRWVDEEWPKRERGDPSRV	2.93
VEKVLRRWVDEEWPKRERGDPSRM	3.47
VEKVLRRWVDEEWPKRERGDPSRS	2.81
VEKVLRRWVDEEWPKRERGDPSRE	2.48
VEKVLRRWVDEEWPKRERGDPSRF	2.61
VEKVLRRWVDEEWPKRERGDPSRI	2.3
VEKVLRRWVDEEWPKRERGDPSRN	2.75
VEKVLRRWVDEEWPKRERGDPSRG	2.71
VEKVLRRWVDEEWPKRERGDPSRT	2.96
VEKVLRRWVDEEWPKRERGDPSRA	2.59
VEKVLRRWVDEEWPKRERGDPSRP	2.37
VEKVLRRWVDEEWPKRERGDPSRK	3.04
VEKVLRRWVDEEWPKRERGDPSRW	1.84
VEKVLRRWVDEEWPKRERGDPSRR	3.5
VEKVLRRWVDEEWPKRERGDGSRH	3.02
VEKVLRRWVDEEWPKRERGDVSRH	2.19
VEKVLRRWVDEEWPKRERGDQSRH	3.07
VEKVLRRWVDEEWPKRERGDESRH	3.51
VEKVLRRWVDEEWPKRERGDRSRH	2.4
VEKVLRRWVDEEWPKRERGDTSRH	2.68
VEKVLRRWVDEEWPKRERGDCSRH	2.51

Variant	protein stability index
VEKVLRRWVDEEWPKRERGDASRH	3.34
VEKVLRRWVDEEWPKRERGDMSRH	2.39
VEKVLRRWVDEEWPKRERGDISRH	2.36
VEKVLRRWVDEEWPKRERGDLSRH	2.5
VEKVLRRWVDEEWPKRERGDYSRH	2.34
VEKVLRRWVDEEWPKRERGDKSRH	3.46
VEKVLRRWVDEEWPKRERGDWSRH	1.89
VEKVLRRWVDEEWPKRERGDNSRH	3.21
VEKVLRRWVDEEWPKRERGDHSRH	2.52
VEKVLRRWVDEEWPKRERGDFSRH	2.28
VEKVLRRWVDEEWPKRERGDDSRH	3.57
VEKVLRRWVDEEWPKRERGDSSRH	3.25
VEKVLRRWVDEEWPKRERGRPSRH	2.48
VEKVLRRWVDEEWPKRERGNPSRH	2.94
VEKVLRRWVDEEWPKRERGWPSRH	2.61
VEKVLRRWVDEEWPKRERGPPSRH	2.04
VEKVLRRWVDEEWPKRERGQPSRH	2.5
VEKVLRRWVDEEWPKRERGMPSRH	2.21
VEKVLRRWVDEEWPKRERGEPSRH	2.63
VEKVLRRWVDEEWPKRERGKPSRH	3.07
VEKVLRRWVDEEWPKRERGYPSRH	2.63
VEKVLRRWVDEEWPKRERGGPSRH	2.81
VEKVLRRWVDEEWPKRERGHPSRH	2.81
VEKVLRRWVDEEWPKRERGFPSRH	2.35
VEKVLRRWVDEEWPKRERGCPSRH	2.31
VEKVLRRWVDEEWPKRERGAPSRH	3.45

Variant	protein stability index
VEKVLRRWVDEEWPKRERGTPSRH	3.07
VEKVLRRWVDEEWPKRERGLPSRH	2.5
VEKVLRRWVDEEWPKRERGIPSRH	2.19
VEKVLRRWVDEEWPKRERGVPSRH	2.71
VEKVLRRWVDEEWPKRERGSPSRH	2.68
VEKVLRRWVDEEWPKRERGDPSMH	2.45
VEKVLRRWVDEEWPKRERGDPSNH	2.81
VEKVLRRWVDEEWPKRERGDPSWH	1.88
VEKVLRRWVDEEWPKRERGDPSSH	3.07
VEKVLRRWVDEEWPKRERGDPSLH	2.66
VEKVLRRWVDEEWPKRERGDPSYH	2.87
VEKVLRRWVDEEWPKRERGDPSKH	2.83
VEKVLRRWVDEEWPKRERGDPSAH	2.83
VEKVLRRWVDEEWPKRERGDPSDH	3.05
VEKVLRRWVDEEWPKRERGDPSFH	1.98
VEKVLRRWVDEEWPKRERGDPSGH	2.59
VEKVLRRWVDEEWPKRERGDPSQH	2.96
VEKVLRRWVDEEWPKRERGDPSVH	2.44
VEKVLRRWVDEEWPKRERGDPSPH	3.56
VEKVLRRWVDEEWPKRERGDPSEH	3.71
VEKVLRRWVDEEWPKRERGDPSHH	3.38
VEKVLRRWVDEEWPKRERGDPSIH	3.32
VEKVLRRWVDEEWPKRERGDPSTH	2.58
VEKVLRRWVDEEWPKRERGDPSCH	3
VEKVLRRWVDEEWPKRERWDPSRH	2.1
VEKVLRRWVDEEWPKRERSDPSRH	2.8

Variant	protein stability index
VEKVLRRWVDEEWPKRERPDPSRH	2.89
VEKVLRRWVDEEWPKRERTDPSRH	2.55
VEKVLRRWVDEEWPKRERYDPSRH	2.21
VEKVLRRWVDEEWPKRERRDPSRH	2.64
VEKVLRRWVDEEWPKRERQDPSRH	2.73
VEKVLRRWVDEEWPKRERVDPSRH	2.11
VEKVLRRWVDEEWPKRERGDPCRH	2.2
VEKVLRRWVDEEWPKRERGDPGRH	2.31
VEKVLRRWVDEEWPKRERGDPIRH	2.52
VEKVLRRWVDEEWPKRERGDPMRH	2.17
VEKVLRRWVDEEWPKRERGDPYRH	2.52
VEKVLRRWVDEEWPKRERGDPKRH	2.46
VEKVLRRWVDEEWPKRERGDPDRH	3.26
VEKVLRRWVDEEWPKRERGDPNRH	2.78
VEKVLRRWVDEEWPKRERGDPQRH	2.96
VEKVLRRWVDEEWPKRERGDPHRH	2.55
VEKVLRRWVDEEWPKRERGDPWRH	1.84
VEKVLRRWVDEEWPKRERGDPTRH	2.93
VEKVLRRWVDEEWPKRERGDPERH	3.63
VEKVLRRWVDEEWPKRERGDPRRH	3.51
VEKVLRRWVDEEWPKRERGDPVRH	2.66
VEKVLRRWVDEEWPKRERGDPARH	2.48
VEKVLRRWVDEEWPKRERGDPPRH	2.6
VEKVLRRWVDEEWPKRERGDPFRH	1.83

Variants of: B2
Assay: as above
Settings: c terminus: native

Variant	protein stability index
TLSEAYIQIWKRRRNDETNQQGA	2.74
TLSEAYIQIWKRRCNDETNQQGA	2.08
TLSEAYIQIWKRRTNDETNQQGA	2.39
TLSEAYIQIWKRRDNDQTNQQGA	1.55
TLSEAYIQIWKRRDNDFTNQQGA	1.99
TLSEAYIQIWKRRDNDYTNQQGA	1.87
TLSEAYIQIWKRRDNDHTNQQGA	1.6
TLSEAYIQCWKRRDNDETNQQGA	2.12
TLSEAYIQFWKRRDNDETNQQGA	2.03
TLSEAYIQYWKRRDNDETNQQGA	3.19
TLSEAYIQIWKRRDNDEQNQQGA	1.61
TLSEAYIQIWKRRDNDERNQQGA	2.54
TLSEAYIQIWKRRDNDEYNQQGA	2.51
TLSEAYIQIWKRRDNDEANQQGA	3.05
TLSEAYIQIWKRRDNDEINQQGA	3.17
TLSEAYIQIWKRRDNDETNQTGA	3.59
TLSEAYIQIWKRRDNDETNQAGA	2.96
TLSEAYIQIWKRRDNDETNQGGA	2.52
TLSEAYIQIWKRRDNDETNQDGA	2.74
TLSEAYIQIWKRRDNDETNQVGA	1.96
THSEAYIQIWKRRDNDETNQQGA	3.1
TLSEAYIQIWSRRDNDETNQQGA	3.78
TLSEAYIQIWHRRDNDETNQQGA	1.88

Variant	protein stability index
TLSEAYIQIWGRRDNDETNQQGA	2.39
TLSEAYIQIWERRDNDETNQQGA	1.92
TLSEAYIQIWNRRDNDETNQQGA	2.41
TLSEAYIQIWKTRDNDETNQQGA	2.65
TLSEAYIQIWKKRDNDETNQQGA	2.89
TLSEAYIQIWKIRDNDETNQQGA	3.09
TLSEAYIQIWKRRDNWETNQQGA	3.13
TLSEAYIQIWKRRDNAETNQQGA	2.1
TLSEAYIQIWKRRDNEETNQQGA	2.14
TLSEAYIQIWKRRDNDETMQQGA	2.06
TLSEAYIQIWKRRDNDETWQQGA	2.61
TLSEAYIQIWKRRDNDETQQQGA	2.85
TLSEAYIQIWKRRDNDETEQQGA	3.9
TLSEAYIQIWKRRDNDETDQQGA	4.38
TLSEAYIQIWKRRDNDETPQQGA	1.45
TLSEAYIQIWKRRDNDETFQQGA	2.99
TLSEAYIQIWKRRDNDETKQQGA	2.77
TLSEAYIQIWKRIDNDETNQQGA	2.52
TLSEAYIQIWKRFDNDETNQQGA	1.48
TLSEAYIQIWKREDNDETNQQGA	2.63
TLSEAYIQIWKRYDNDETNQQGA	1.56
TLSEAYIQIWKRDDNDETNQQGA	3.22
TLSEAYIQIWKRRDNDETNEQGA	2.15

Variant	protein stability index
TLSEAYIQIWKRRDNDETNIQGA	1.74
TLSEAYIQIWKRRDNDETNCQGA	2.38
TLSEAFIQIWKRRDNDETNQQGA	2.9
TLSEARIQIWKRRDNDETNQQGA	3.02
TLSEASIQIWKRRDNDETNQQGA	2.89
TLSEALIQIWKRRDNDETNQQGA	2.2
TLSEQYIQIWKRRDNDETNQQGA	2.69
TLSEWYIQIWKRRDNDETNQQGA	2.18
TLSEHYIQIWKRRDNDETNQQGA	2.39
TLSEAYIQIWKRRDNDETNQQGD	4.15
TLSEAYIQIWKRRDNDETNQQGH	4.18
TLSEAYIQIWKRRDNDETNQQGP	4.07
TLSEAYIQIWKRRDNDETNQQGQ	4.5
TLSEAYIQIWKRRDNDETNQQGI	3.76
TLFEAYIQIWKRRDNDETNQQGA	2.14
TLEEAYIQIWKRRDNDETNQQGA	2.95
TLPEAYIQIWKRRDNDETNQQGA	3.01
TLSEAYPQIWKRRDNDETNQQGA	3.23
TLSEAYFQIWKRRDNDETNQQGA	2.27
TLSEAYLQIWKRRDNDETNQQGA	2.44
TLSEAYTQIWKRRDNDETNQQGA	2.53
TLSEAYNQIWKRRDNDETNQQGA	2.82
TLSEAYCQIWKRRDNDETNQQGA	2.41

Variant	protein stability index
TLSEAYYQIWKRRDNDETNQQGA	2.18
TLSEAYIQIWKRRDNDETNQQSA	3.82
TLSEAYIQIWKRRDNDETNQQMA	3.1
TLSEAYIQIWKRRDNDETNQQPA	3.05
TLSEAYIQIWKRRDNDETNQQEA	4.79
NLSEAYIQIWKRRDNDETNQQGA	2.99
PLSEAYIQIWKRRDNDETNQQGA	2.54
HLSEAYIQIWKRRDNDETNQQGA	1.99
TLSWAYIQIWKRRDNDETNQQGA	1.73
TLSQAYIQIWKRRDNDETNQQGA	2.32
TLSEAYIQITKRRDNDETNQQGA	2.92
TLSEAYIQIGKRRDNDETNQQGA	3.27
TLSEAYIQIVKRRDNDETNQQGA	3.58
TLSEAYIQIDKRRDNDETNQQGA	3.97
TLSEAYIQIWKRRDADETNQQGA	2.38
TLSEAYIQIWKRRDPDETNQQGA	1.77
TLSEAYIQIWKRRDEDETNQQGA	3.18
TLSEAYIQIWKRRDIDETNQQGA	2.53
TLSEAYIQIWKRRDLDETNQQGA	1.92
TLSEAYICIWKRRDNDETNQQGA	1.95
